Test results as given in FireProtDB (doi:10.1182/blood-2007-11-122457).

Details: Homo sapiens; pH 7.4; Thermal; DSC; Sodium phosphate 10mM; NaCl 130 mM; transition: 2; reversible: yes; structure 1OWA

Substance | Tm [°C] | change of melting temperature, mutant - wild type (higher = more stable) [°C]
Spectrin alpha chain, erythrocytic 1, P02549 G46V | 52.8 | -1.8
Spectrin alpha chain, erythrocytic 1, P02549 I24S | 53.2 | -1.4
Spectrin alpha chain, erythrocytic 1, P02549 I24T | 54.4 | -0.2
Spectrin alpha chain, erythrocytic 1, P02549 K48R | 54.7 | 0.1
Spectrin alpha chain, erythrocytic 1, P02549 L49F | 55.4 | 0.8
Spectrin alpha chain, erythrocytic 1, P02549 R28H | 53.6 | -1
Spectrin alpha chain, erythrocytic 1, P02549 R28L | 53.1 | -1.5
Spectrin alpha chain, erythrocytic 1, P02549 R28S | 53.3 | -1.3
Spectrin alpha chain, erythrocytic 1, P02549 R34W | 49.1 | -5.5
Spectrin alpha chain, erythrocytic 1, P02549 R45S | 55.1 | 0.5
Spectrin alpha chain, erythrocytic 1, P02549 R45T | 54.6 | 0
Spectrin alpha chain, erythrocytic 1, P02549 V31A | 54.5 | -0.1
